This note sets out measurements from US20240358855A1 (UNIVERSITY OF UTAH RESEARCH FOUNDATION, published 2024).

The target in experiment [1] is T1, C3b protein (UniProt P01024 23-667; P01024 749-1663, limits assumed).
T1 construct: domain: C3b; Bought protein coated on plates
Nature of the experiment: plate binding ELISA on coated C3b; fold vs (-) control pCTM395 supernatant. For orientation: In an ELISA, binding on a coated surface is turned into a signal by an enzyme label.

The target of experiment [2] is T2, CRP (UniProt P02741 19-224).
T2 construct: Bought protein coated on plates; also called C reactive protein
T2 sequence (looked up): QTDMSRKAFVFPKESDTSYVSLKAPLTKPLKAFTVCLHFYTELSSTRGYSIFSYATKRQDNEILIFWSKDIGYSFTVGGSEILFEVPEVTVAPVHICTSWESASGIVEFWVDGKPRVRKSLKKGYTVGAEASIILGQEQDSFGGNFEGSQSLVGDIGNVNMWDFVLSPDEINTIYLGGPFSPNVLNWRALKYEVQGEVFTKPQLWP
Kind of experiment: plate binding ELISA on coated CRP; fold vs (-) control pCTM395 supernatant.

The target in experiment [3] is T1, C3b protein. Nature of the experiment: plate binding ELISA on coated C3b, HEK293 supernatant 25 ng/mL; fold vs (-) control pCTM395 supernatant. The protocol: The C3b binding assay uses C3b protein (Complement Technology, Cat. #A114) diluted with 50 mM carbonate coating buffer (pH 9.6) at a final concentration of 50 μM. A total of 100 μl of C3b/carbonate solution was added to each well of a black MaxiSorp 96-wellmicroplate, covered and incubated overnight at 4° C. Blank control wells were incubated with carbonate coating buffer containing no C3b protein. Wells were washed 3 times with 300 μl PBST then blocked for 1 hour with reagent dilution buffer (1% BSA in PBS). Wells were washed again 3 times with 300 μl PBST. […] The plate was washed as above then incubated for 1 hour with anti-CFH/CFHT biotinylated aCTM87b antibody (OX-24, AbCam, Cat. #ab112197) at 1:1000 dilution. The plates were washed as above, then incubated for 1 hour with high sensitivity Streptavidin-HRP (Pierce Cat. #21130) at 1:10,000, washed as above then incubated for 5 minutes with SuperSignal ELISA Pico Chemiluminescent Substrate (Thermo Scientific, Cat. #37069) before detection using the BioTek Synergy4 plate reader.
For C3b assays, 25 ng/mL of CFHT protein-containing supernatant was added to plates coated with C3b.

Another experiment addresses C3 convertase, C3bBb (UniProt P01024 23-1663; P00751 260-764, limits assumed). Nature of the experiment: cell-based or functional assay.
Experiment [4] has as its target T2, CRP. Kind of experiment: plate binding ELISA on coated CRP, purified protein; fold vs CFHT-I62.
Experiment [5] has as its target T2, CRP. Kind of experiment: plate binding ELISA on coated CRP, HEK293 supernatant; fold vs (-) control pCTM395 supernatant.
The target of experiment [6] is T1, C3b protein. Kind of experiment: plate binding ELISA on coated C3b, purified protein; fold vs CFHT-I62. The protocol: The C3b binding assay uses C3b protein (Complement Technology, Cat. #A114) diluted with 50 mM carbonate coating buffer (pH 9.6) at a final concentration of 50 μM. A total of 100 μl of C3b/carbonate solution was added to each well of a black MaxiSorp 96-wellmicroplate, covered and incubated overnight at 4° C. Blank control wells were incubated with carbonate coating buffer containing no C3b protein. Wells were washed 3 times with 300 μl PBST then blocked for 1 hour with reagent dilution buffer (1% BSA in PBS). Wells were washed again 3 times with 300 μl PBST. Dilutions of recombinant protective CFH, CFHT, oCFHT or supernatant from transiently transfected or transduced Cos-7 cells were prepared in reagent dilution buffer, added to wells in triplicate and incubated for 1 hour at room temperature. The plate was washed as above then incubated for 1 hour with anti-CFH/CFHT biotinylated aCTM87b antibody (OX-24, AbCam, Cat. #ab112197) at 1:1000 dilution. The plates were washed as above, then incubated for 1 hour with high sensitivity Streptavidin-HRP (Pierce Cat. #21130) at 1:10,000, washed as above then incubated for 5 minutes with SuperSignal ELISA Pico Chemiluminescent Substrate (Thermo Scientific, Cat. #37069) before detection using the BioTek Synergy4 plate reader. […]

For another experiment, the target named is T3, C3d ligand (UniProt P01024 1002-1303, limits assumed).
T3 construct: domain: C3d
Kind of experiment: plate binding assay on C3d, purified protein; fold vs CFHT-I62.

T1 sequence (P01024 23-667 limits assumed, chain 1 of 2): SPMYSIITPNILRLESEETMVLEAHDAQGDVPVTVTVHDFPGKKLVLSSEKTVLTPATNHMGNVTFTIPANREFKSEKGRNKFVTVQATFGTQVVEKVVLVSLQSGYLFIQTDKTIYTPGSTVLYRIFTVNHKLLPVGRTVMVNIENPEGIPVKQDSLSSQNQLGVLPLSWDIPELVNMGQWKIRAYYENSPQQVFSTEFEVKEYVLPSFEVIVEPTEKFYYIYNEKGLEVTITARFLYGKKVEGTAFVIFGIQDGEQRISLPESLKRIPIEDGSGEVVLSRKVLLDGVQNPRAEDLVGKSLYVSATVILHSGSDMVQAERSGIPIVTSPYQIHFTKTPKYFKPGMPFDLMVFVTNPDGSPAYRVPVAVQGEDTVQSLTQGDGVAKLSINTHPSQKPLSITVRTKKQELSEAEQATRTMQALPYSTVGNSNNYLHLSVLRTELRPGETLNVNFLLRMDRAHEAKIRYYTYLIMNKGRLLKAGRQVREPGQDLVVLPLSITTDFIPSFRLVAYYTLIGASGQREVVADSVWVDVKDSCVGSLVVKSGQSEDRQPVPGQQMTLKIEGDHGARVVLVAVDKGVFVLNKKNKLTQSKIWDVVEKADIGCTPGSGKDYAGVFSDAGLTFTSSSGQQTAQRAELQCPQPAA
T1 sequence (P01024 749-1663 limits assumed, chain 2 of 2): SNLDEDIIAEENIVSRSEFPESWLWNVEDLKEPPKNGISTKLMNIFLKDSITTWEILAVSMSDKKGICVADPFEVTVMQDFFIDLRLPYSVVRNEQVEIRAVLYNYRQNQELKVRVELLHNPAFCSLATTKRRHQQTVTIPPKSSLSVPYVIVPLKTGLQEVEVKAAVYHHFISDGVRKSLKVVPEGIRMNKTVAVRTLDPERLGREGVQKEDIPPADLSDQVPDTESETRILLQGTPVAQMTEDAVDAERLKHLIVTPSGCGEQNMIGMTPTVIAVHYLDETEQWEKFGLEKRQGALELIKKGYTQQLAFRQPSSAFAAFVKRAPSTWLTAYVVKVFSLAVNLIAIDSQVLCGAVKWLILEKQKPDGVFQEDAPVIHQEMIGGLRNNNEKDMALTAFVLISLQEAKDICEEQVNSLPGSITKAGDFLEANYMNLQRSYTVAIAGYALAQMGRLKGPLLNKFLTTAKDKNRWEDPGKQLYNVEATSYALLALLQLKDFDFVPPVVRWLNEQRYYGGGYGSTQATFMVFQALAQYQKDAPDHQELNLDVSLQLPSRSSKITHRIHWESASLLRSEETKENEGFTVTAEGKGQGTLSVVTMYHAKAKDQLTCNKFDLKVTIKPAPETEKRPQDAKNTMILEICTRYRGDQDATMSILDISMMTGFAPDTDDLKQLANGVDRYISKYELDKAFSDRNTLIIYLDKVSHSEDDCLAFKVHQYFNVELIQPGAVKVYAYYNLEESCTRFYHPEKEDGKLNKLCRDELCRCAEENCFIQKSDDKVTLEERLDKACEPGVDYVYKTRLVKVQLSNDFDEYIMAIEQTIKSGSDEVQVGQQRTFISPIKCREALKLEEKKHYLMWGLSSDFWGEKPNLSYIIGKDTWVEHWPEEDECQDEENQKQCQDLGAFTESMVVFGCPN
T3 sequence (P01024 1002-1303 limits assumed): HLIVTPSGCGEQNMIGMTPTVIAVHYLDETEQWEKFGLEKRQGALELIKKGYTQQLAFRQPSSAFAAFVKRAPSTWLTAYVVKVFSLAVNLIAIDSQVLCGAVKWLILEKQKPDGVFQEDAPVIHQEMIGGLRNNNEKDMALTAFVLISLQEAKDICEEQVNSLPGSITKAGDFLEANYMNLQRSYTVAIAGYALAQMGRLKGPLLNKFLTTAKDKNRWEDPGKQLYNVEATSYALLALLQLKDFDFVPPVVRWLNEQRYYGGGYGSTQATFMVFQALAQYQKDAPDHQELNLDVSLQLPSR
C3 convertase, C3bBb, sequence (P01024 23-1663 limits assumed, chain 1 of 2): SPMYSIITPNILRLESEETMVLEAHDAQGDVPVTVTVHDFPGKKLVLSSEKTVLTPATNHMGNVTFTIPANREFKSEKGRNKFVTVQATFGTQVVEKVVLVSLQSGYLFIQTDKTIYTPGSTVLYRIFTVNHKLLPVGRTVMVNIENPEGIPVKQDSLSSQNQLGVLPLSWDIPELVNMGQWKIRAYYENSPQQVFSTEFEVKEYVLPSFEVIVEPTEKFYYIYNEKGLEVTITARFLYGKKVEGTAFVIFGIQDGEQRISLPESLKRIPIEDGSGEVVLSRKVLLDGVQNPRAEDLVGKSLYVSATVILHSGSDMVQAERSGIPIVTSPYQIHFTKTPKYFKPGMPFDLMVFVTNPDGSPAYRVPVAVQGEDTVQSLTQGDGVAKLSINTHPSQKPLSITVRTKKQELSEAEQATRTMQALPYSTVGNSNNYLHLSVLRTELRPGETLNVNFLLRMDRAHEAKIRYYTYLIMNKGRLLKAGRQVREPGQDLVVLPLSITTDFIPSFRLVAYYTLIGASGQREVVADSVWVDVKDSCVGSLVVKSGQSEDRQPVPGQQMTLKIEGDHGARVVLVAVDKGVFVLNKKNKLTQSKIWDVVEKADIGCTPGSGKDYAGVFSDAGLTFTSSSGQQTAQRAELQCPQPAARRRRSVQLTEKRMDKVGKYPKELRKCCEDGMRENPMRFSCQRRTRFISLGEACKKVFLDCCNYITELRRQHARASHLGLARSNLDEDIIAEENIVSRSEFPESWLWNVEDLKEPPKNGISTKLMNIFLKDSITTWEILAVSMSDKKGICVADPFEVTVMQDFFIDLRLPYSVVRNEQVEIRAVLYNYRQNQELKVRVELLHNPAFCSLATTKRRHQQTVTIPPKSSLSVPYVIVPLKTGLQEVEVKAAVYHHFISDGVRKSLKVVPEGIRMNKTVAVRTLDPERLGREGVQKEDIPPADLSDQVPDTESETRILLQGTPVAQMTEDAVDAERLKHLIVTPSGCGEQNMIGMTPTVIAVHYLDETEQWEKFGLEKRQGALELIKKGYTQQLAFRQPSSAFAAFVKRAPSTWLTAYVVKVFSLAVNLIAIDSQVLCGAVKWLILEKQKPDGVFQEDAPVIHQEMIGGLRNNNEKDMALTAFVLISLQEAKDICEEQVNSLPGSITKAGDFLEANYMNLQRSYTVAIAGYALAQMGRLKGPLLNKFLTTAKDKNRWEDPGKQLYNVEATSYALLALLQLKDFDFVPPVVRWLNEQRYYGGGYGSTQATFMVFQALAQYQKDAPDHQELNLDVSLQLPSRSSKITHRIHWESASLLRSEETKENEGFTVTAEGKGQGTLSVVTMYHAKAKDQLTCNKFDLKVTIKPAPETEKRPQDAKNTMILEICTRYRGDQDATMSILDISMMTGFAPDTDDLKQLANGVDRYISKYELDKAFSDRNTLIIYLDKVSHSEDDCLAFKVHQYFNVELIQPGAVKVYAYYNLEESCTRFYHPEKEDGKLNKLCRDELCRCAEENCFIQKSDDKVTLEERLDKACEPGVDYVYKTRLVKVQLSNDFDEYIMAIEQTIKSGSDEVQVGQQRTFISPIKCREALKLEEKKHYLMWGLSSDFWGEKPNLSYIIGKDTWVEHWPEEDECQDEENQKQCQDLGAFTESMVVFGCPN
C3 convertase, C3bBb, sequence (P00751 260-764 limits assumed, chain 2 of 2): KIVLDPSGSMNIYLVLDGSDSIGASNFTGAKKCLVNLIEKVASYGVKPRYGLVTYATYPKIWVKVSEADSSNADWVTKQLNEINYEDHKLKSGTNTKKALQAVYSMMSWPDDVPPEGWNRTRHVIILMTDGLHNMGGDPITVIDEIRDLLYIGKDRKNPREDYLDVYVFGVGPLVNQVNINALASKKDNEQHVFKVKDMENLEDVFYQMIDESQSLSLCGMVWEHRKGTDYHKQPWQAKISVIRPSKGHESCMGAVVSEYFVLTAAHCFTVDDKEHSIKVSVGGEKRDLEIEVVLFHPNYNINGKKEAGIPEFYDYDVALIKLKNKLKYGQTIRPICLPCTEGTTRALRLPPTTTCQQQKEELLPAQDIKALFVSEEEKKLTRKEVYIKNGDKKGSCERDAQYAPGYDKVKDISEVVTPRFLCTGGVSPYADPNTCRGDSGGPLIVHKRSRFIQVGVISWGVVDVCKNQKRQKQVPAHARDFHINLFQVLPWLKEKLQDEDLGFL

B1: rCFHT-I62 Protein (other)
chain: EDCNELPPRRNTEILTGSWSDQTYPEGTQAIYKCRPGYRSLGNIIMVCRKGEWVALNPLRKCQKRPCGHPGDTPFGTFTLTGGNVFEYGVKAVYTCNEGYQLLGEINYRECDTDGWTNDIPICEVVKCLPVTAPENGKIVSSAMEPDREYHFGQAVRFVCNSGYKIEGDEEMHCSDDGFWSKEKPKCVEISCKSPDVINGSPISQKIIYKENERFQYKCNMGYEYSERGDAVCTESGWRPLPSCEEKSCDNPYIPNGDYSPLRIKHRTGDEITYQCRNGFYPATRGNTAKCTSTGWIPAPRCTLKPCDYPDIKHGGLYHENMRRPYFPVAVGKYYSYYCDEHFETPSGSYWDHIHCTQDGWSPAVPCLRKCYFPYLENGYNQNYGRKFVQGKSIDVACHPGYALPKAQTTVTCMENGWSPTPRCIRVSFTL
notes: Purified recombinant protective CFHT (I62, Y402); also called purified recombinant CFHT-I62 protein; recombinant CFHT-I62
For the molecule B1, the “Fold Activity at Highest Dose (Relative to Control)” value with C3b protein [1] was determined as 3.8 fold; with CRP [2] it was 2.8 fold.

B2: CFHT.0 (pCTM297) (other)
chain: B1 chain
notes: also called unmodified CFHT; protective CFHT
Turning to B2, in the experiment with C3b protein [3], the “Fold Activity at Highest Dose (Relative to Control)” value was 1.5 fold.

B3: His-mCFHT.1 (pCTM459) (other, not shown: small tags and cut ends)
chain: EDCNELPPRRNTEILTGSWSDQTYPEGTQAIYKCRPGYRSLGNIIMVCRKGEWVALNPLRKCQKRPCGHPGDTPFGTFTLTGGNVFEYGVKAVYTCNEGYQLLGEINYRECDTDGWTNDIPICEVVKCLPVTAPENGKIVSSAMEPDREYHFGQAVRFVCNSGYKIEGDEEMHCSDDGFWSKEKPKCVEISCKSPDVINGSPISQKIIYKENERFQYKCNMGYEYSERGDAVCTESGWRPLPSCEEKSCDNPYIPNGDYSPLRIKHRTGDEITYQCRNGFYPATRGNTAKCTSTGWIPAPRCTLKPCDYPDIKHGGLYHENMRRPYFPVAVGKYYSYYCDEHFETPSGSYWDHIHCTQDGWSPAVPCLRKCYFPYLENGYNQNYGRKFVQGKSIDVACHPGYALPKAQTTVTCMENGWSPTPRCIRVRKCYFPYLENGYNQNYGRKFVQGKSIDVACHPGYALPKAQTTVTCMENGWSPTPRCIRVSFTL
notes: Protective CFHT with one additional C-terminal SCR7 domain; also called purified recombinant mCFHT.1
As for B3, the “IC50, decay acceleration activity (DAA) assay” value in the experiment with C3 convertase, C3bBb was determined as 15.5 nM. For the same molecule, the “fold less active than unmodified CFHT, DAA assay” value with C3 convertase, C3bBb amounted to 8 fold. Further, the “Fold Activity (Compared to CFHT-I62)” value turned out to be 12.2 fold with CRP [4], 40.1 fold with C3b protein [6] and 3.8 fold with C3d ligand. Also, the “Fold Activity at Highest Dose (Relative to Control)” value worked out at 6.3 fold with CRP [5] and 43 fold with C3b protein [3].

B4: His-mCFHT.2 (pCTM460) (other)
chain: EDCNELPPRRNTEILTGSWSDQTYPEGTQAIYKCRPGYRSLGNIIMVCRKGEWVALNPLRKCQKRPCGHPGDTPFGTFTLTGGNVFEYGVKAVYTCNEGYQLLGEINYRECDTDGWTNDIPICEVVKCLPVTAPENGKIVSSAMEPDREYHFGQAVRFVCNSGYKIEGDEEMHCSDDGFWSKEKPKCVEISCKSPDVINGSPISQKIIYKENERFQYKCNMGYEYSERGDAVCTESGWRPLPSCEEKSCDNPYIPNGDYSPLRIKHRTGDEITYQCRNGFYPATRGNTAKCTSTGWIPAPRCTLKPCDYPDIKHGGLYHENMRRPYFPVAVGKYYSYYCDEHFETPSGSYWDHIHCTQDGWSPAVPCLRKCYFPYLENGYNQNYGRKFVQGKSIDVACHPGYALPKAQTTVTCMENGWSPTPRCIRVRKCYFPYLENGYNQNYGRKFVQGKSIDVACHPGYALPKAQTTVTCMENGWSPTPRCIRVRKCYFPYLENGYNQNYGRKFVQGKSIDVACHPGYALPKAQTTVTCMENGWSPTPRCIRVSFTL
notes: Protective CFHT with two additional C-terminal SCR7 domains; no residue range stated; HEK293 supernatant; not shown: N-terminal 6x His-TEV tag (87 bp, 29 residues by transgene size: 1791 against 1704)
As to B4, the figures for the “Fold Activity at Highest Dose (Relative to Control)” value with CRP [5] and with C3b protein [3] were 49 fold and 99 fold, respectively.

B5: His-dCFHT.0 (pCTM462) (other)
chain: EATFCDFPKINHGILYDEEKYKPFSQVPTGEVFYYSCEYNFVSPSKSFWTRITCTEEGWSPTPKCLRLCFFPFVENGHSESSGQTHLEGDTVQIICNTGYRLQNNENNISCVERGWSTPPKCRSGGGGSGGGGSEDCNELPPRRNTEILTGSWSDQTYPEGTQAIYKCRPGYRSLGNIIMVCRKGEWVALNPLRKCQKRPCGHPGDTPFGTFTLTGGNVFEYGVKAVYTCNEGYQLLGEINYRECDTDGWTNDIPICEVVKCLPVTAPENGKIVSSAMEPDREYHFGQAVRFVCNSGYKIEGDEEMHCSDDGFWSKEKPKCVEISCKSPDVINGSPISQKIIYKENERFQYKCNMGYEYSERGDAVCTESGWRPLPSCEEKSCDNPYIPNGDYSPLRIKHRTGDEITYQCRNGFYPATRGNTAKCTSTGWIPAPRCTLKPCDYPDIKHGGLYHENMRRPYFPVAVGKYYSYYCDEHFETPSGSYWDHIHCTQDGWSPAVPCLRKCYFPYLENGYNQNYGRKFVQGKSIDVACHPGYALPKAQTTVTCMENGWSPTPRCIRVSFTL
notes: Protective CFHT with the FHR-1 SCR1/2 homodimerization domain at the N-terminus ('dimer CFHT'); copies 2 follows that description, dimer state not measured; no residue range stated; also called purified recombinant dCFHT.0; not shown: 6x His-TEV tag (87 bp, 29 residues by transgene size: 1839 against 1752)
B5: the “Fold Activity (Compared to CFHT-I62)” value with CRP [4] was found to be 2.2 fold; in the experiment with C3b protein [6] it was 55.3 fold; with C3d ligand it was 2.1 fold. Moreover, the results for the “Fold Activity at Highest Dose (Relative to Control)” value with CRP [5] and with C3b protein [3] were 6.4 fold and 22 fold, respectively.
